Where no end group is shown, it is not given here.
Assays:
[1] = target: IMPα5 lacking the IBB domain (residues 73-538) (UniProt P52294 73-538); test: FP
[2] = target: IMPα2 lacking the IBB domain (residues 70-529) (UniProt P52293 70-529); test: FP

IMPα5 lacking the IBB domain (residues 73-538), sequence (P52294 73-538): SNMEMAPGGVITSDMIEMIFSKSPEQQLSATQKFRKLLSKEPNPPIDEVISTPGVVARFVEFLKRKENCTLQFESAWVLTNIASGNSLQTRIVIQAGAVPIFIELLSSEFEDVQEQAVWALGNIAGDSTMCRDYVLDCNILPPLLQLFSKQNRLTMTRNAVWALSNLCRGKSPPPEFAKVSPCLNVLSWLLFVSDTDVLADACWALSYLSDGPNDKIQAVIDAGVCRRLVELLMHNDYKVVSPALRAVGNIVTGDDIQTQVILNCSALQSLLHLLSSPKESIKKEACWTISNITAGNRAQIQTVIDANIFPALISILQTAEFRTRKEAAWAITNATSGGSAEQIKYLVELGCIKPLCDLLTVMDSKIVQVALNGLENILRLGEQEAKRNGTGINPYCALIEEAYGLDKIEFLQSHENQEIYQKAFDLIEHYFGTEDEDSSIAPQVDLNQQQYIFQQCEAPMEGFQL

RKARKRSHSPTKKLRYVKRRF (also: FITC-tagged) [FITC-tagged MERS-CoV ORF4b NLS peptide (residues 19-39), wild type]
Kd [1]: 9.6 nM | Kd [2]: 11.3 nM
